We go through one substance from US8133978.

The assay addresses Human interleukin-18 (recombinant human IL-18) (human) (UniProt Q14116). In words: cell-based or functional assay.

Sequence of Human interleukin-18 (recombinant human IL-18) (human) (Q14116 37-193 limits assumed): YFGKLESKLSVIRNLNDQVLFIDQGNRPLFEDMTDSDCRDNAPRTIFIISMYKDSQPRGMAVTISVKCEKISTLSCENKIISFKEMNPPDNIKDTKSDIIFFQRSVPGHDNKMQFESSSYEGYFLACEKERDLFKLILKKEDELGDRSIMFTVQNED
Sequence of IL-18 bp (IL-18 binding protein as used in the bioassays) (O95998 31-194 limits assumed): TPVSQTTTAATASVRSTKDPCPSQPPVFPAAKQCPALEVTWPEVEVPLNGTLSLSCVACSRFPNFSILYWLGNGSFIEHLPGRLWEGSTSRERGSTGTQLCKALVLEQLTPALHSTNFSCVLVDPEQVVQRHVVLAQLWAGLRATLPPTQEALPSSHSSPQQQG

Consider “IL-18 bp (IL-18 binding protein as used in the bioassays) (from UniProt O95998 31-194)”, for which the IC50, LPS-stimulated IFNγ release, human PBMC, Donor 1 10% serum stood at 0.024; the IC50, LPS-stimulated IFNγ release, human PBMC, Donor 1 25% serum was 0.064; the IC50, LPS-stimulated IFNγ release, human PBMC, Donor 3 10% serum amounted to 0.032; the IC50, LPS-stimulated IFNγ release, human PBMC, Donor 3 25% serum was determined as 0.046. Also, the complete inhibition of IL-18 mediated IFNγ release, LPS-stimulated human PBMC, 10% or 25% human serum was above 1 µg/mL.
